Two proteins from patent US20130288275 can be followed below.

The target in data set [1] is Purified SUMO-1 (Biomol UW9190), not acetylated.
Data set [2] addresses Purified SUMO-3 (Biomol UW9210).
The target in data set [3] is Purified SUMO-2 (Biomol UW9200).

Sequence of Purified SUMO-3 (Biomol UW9210) (P55854 whole entry): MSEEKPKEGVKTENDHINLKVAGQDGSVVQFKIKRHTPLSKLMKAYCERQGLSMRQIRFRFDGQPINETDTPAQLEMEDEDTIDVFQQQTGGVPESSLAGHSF

B1: PCAF (protein)
chain: GVIEFHVVGNSLNQKPNKKILMWLVGLQNVFSHQLPRMPKEYITRLVFDPKHKTLALIKDGRVIGGICFRMFPSQGFTEIVFCAVTSNEQVKGYGTHLMNHLKEYHIKHDILNFLTYADEYAIGYFKKQGFSKEIKIPKTKYVGYIKDYEGATLMGCELNPRIPYTE
Consider B1, for which, in data set [1], the “in vitro acetylation with 14C-acetyl CoA, autoradiography” value is listed as “but not by PCAF (not shown)”.

B2: CBP (CREB binding protein) from Biomol (protein)
chain: RKENKFSAKRLQTTRLGNHLEDRVNKFLRRQNHPEAGEVFVRVVASSDKTVEVKPGMKSRFVDSGEMSESFPYRTKALFAFEEIDGVDVCFFGMHVQEYGSDCPPPNTRRVYISYLDSIHFFRPRCLRTAVYHEILIGYLEYVKKLGYVTGHIWACPPSEGDDYIFHCHPPDQKIPKPKRLQEWYKKMLDKAFAERIIHDYKDIFKQATEDRLTSAKELPYFEGDFWPNVLEESIKELEQEEEERKKEESTAASETTEGSQGDSKNAKKKNNKKTNKNKSSISRANKKKPSMPNVSNDLSQKLYATMEKHKEVFFVIHLHAGPVINTLPPIVDPDPLLSCDLMDGRDAFLTLARDKHWEFSSLRRSKWSTLCMLVELHTQGQDRFVYTCNEC
As to B2, the “in vitro acetylation with 14C-acetyl CoA, autoradiography” value was “SUMO-2 and SUMO-3 were also robustly acetylated by CBP (FIG. 2D, lanes 6-7)” in data set [2]; “purified SUMO-1 was efficiently acetylated by CBP (lane 3)” in data set [1]; “SUMO-2 and SUMO-3 were also robustly acetylated by CBP (FIG. 2D, lanes 6-7)” in data set [3].
